Results on one molecule are retold here after patent US20130224191A1, “NOTUM PROTEIN MODULATORS AND METHODS OF USE” (priority 2010, published 2013).

The nature of the series: Esterase activity of Notum proteins on chromogenic substrates. Type of series: biochemical. The following applies: 1 hour at 37° C. The method, then: Briefly, PNPA or PNPB were dissolved/diluted in isopropanol to final concentrations of 10 mM. These substrate solutions were diluted 1:10 into assay buffer (0.1% gum arabic, 2.3 mg/mL sodium dexoycholate, 1×PBS) and incubated with defined amounts of hNotum enzyme, and the enzymatic release of the chromophore p-nitrophenol monitored by absorbance measurements at 405 nm.

B1: macaque Notum: recombinant macaque Notum protein, construct not stated (protein)
chain: SEGRKTWRRRGQQPPPPPRTEAAPAAGQPVESFPLDFTAVEGNMDSFMAQVKSLAQSLYPCSAQQLNEDLRLHLLLNTSVTCNDGSPAGYYLKESRGSRRWLLFLEGGWYCFNRENCDSRYNTMRRLMSSRDWPRTRTGTGILSSQPEENPYWWNANMVFIPYCSSDVWSGASSKSEKNEYAFMGALIIQEVVRELLGRGLSGAKVLLLAGSSAGGTGVLLNVDRVAEQLEELGYPAIQVRGLADSGWFLDNKQYRHTDCVDTITCAPTEAIRRGIRYWNGVVPERCRRQFQEGEEWNCFFGYKIYPTLRCPVFVVQWLFDEAQLTVDNVHLTGQPVQESQRLYIQNLGRELRHTLKDVPASFAPACLSHEIIIRSHWTDVQVKGTSLPRALHCWDRSLHDSHKNSKTPLKGCPVHLVDSCPWPHCNPSCPTVRDQFTGQEMNVAQFLMHMGFDVQTVAQQQGPEPSKLLGL
modifications: left off: a dimerising Fc or GST
For the molecule B1, the esterase activity result is “display esterase activity”.
